Test system: Bacillus subtilis
Experiment: cleaved RNA product abundance (RNA/gDNA barcode ratio) relative to median wild-type variant (ratio to wild type); higher = more accumulation of the downstream cleavage product
How it was run: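 Cleaved product abundance was measured with barcoded reporter mRNAs (truncated aprE or tetM) carrying mutagenized RNase Y cleavage-site windows in the B. subtilis chromosome. Cultures in LB at 37°C grew from OD600 0.0003 to 0.3. Gel-selected cleaved RNA was reverse transcribed and barcode-sequenced with genomic DNA barcodes, and the RNA:gDNA barcode ratio per construct was scaled to the median construct bearing the unmutated site.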

[1] = experiment (reporter, strain, medium): exp 4a: truncated aprE reporter, strain BJT201 with 2% xylose (RNase J1 expressed), cleavage site: cggR-gapA (positions -7 to +36 mutated)
[2] = experiment (reporter, strain, medium): exp 2b: truncated aprE reporter, strain BJT200, cleavage site: cggR-gapA (positions -7 to +36 mutated)
[3] = experiment (reporter, strain, medium): exp 8a: truncated aprE reporter, strain BJT201 with 2% xylose (RNase J1 expressed), cleavage site: glnRA (positions -5 to +31 mutated)
[4] = experiment (reporter, strain, medium): exp 6: tetM reporter, strain 168, cleavage site: cggR-gapA (positions -7 to +36 mutated)

Sequence	cleaved RNA product abundance [1]	cleaved RNA product abundance [3]	further results
ACAGACGAAGGAGCCGCAAAGAAGTTATTACGGGATGAATAATCCCTCAATATAAATCTCTCTCACTTATTTAAA	0.368	–	–
ACAGACGAAGGAGCCGCAAAGAAGTTATTAATGGATTAATAATCCCTCAATATAAATATCTCTCACTTATTTAAA	0.242	–	cleaved RNA product abundance [2]: 0.149
CGACATGTCCCGCTTCTTTCATTAATCAGTTAACTTTTTTGCTATATATATTTACCTTTTAAGAGGAGGAATTTT	–	0.238	–
ACAGACGAAGGAGCCGCAAAGAAGTTATTAAGGGATGAATAATCCCTCAATATACATCTCTCTCACTTATTTAAA	0.206	–	–
ACAGACGAAGGAGCCGCAAAGAAGTTATTAAGGGATCAATAATCCCTCAATATAAATAACTCTCACTTATTTAAA	0.687	–	–
ACAGACGAAGGAGCCTCAAAGAAGTTATTAAGGCATGAATAATCCCTCAATATAAATATCTCTCACTTATTTAAA	–	–	cleaved RNA product abundance [4]: 0.157
ACAGACGAAGGAGCCGCAAAGAAGTTATTAAGGGATGCATAATCACTCAATATAAATATCTCTCACTTATTTAAA	0.109	–	cleaved RNA product abundance [2]: 0.0901
ACAGACGAAGGAGCCGCAAAGAAGTAATTAAGGGATGAATAACCCCTCAATATAAATATCTCTCACTTATTTAAA	0.158	–	–
CGACATGTCCCGCTTCTTTCATTATTCCGTTAGCAACTGTTTTGCTATATTCATTTACCTTTTAAGAGGAGGAAT	–	0.669	–
CGACATGTCCCGCTTCTTTCATTAATCCGTTAGCAACGGTTTTGCTATATACATTTACCTTTTAAGAGGAGGAAT	–	0.387	–
ACAGACGAAGGAGCCGCAAAGAAATTCTTAAGGGATGAATAATCCCTCAATATAAATATCTCTCACTTATTTAAA	0.199	–	cleaved RNA product abundance [2]: 0.186
ACAGACGAAGGAGCCGCAAAGAAGTTATTAAGGGATGAATAATCCCTCAAAATATATATCTCTCACTTATTTAAA	0.304	–	–
ACAGACGAAGGAGCCGCAAAGAAGTTATTAGGGGATGAATAATCCCTCAATATAAATATCTCTCACTTATTTAAA	0.718	–	cleaved RNA product abundance [2]: 0.699; cleaved RNA product abundance [4]: 0.377
CGACATGTCCCGCTTCTTTCATTATTCCGTTAGCAACTGTTTTGCTAAATACATTTACCTTTTAAGAGGAGGAAT	–	0.93	–
CGACATGTCCCGCTTCTTTCATTACTCAGTTAGCAACTGTTTTGCTATATACATTTACCTTTTAAGAGGAGGAAT	–	1.1	–
CGACATGTCCCGCTTCTTTCATTAATCCGTTAGCAACTGTATTTCTATATACATTTACCTTTTAAGAGGAGGAAT	–	0.506	–
ACAGACGAAGGAGCCGCAAAGAAGTTATTAATGGATGAATAATCCCTCATTATAAATATCTCTCACTTATTTAAA	0.201	–	–
ACAGACGAAGGAGCCGCAAATAAGTTTTTAAGGGATGAATAATCCCTCAATATAAATATCTCTCACTTATTTAAA	0.402	–	cleaved RNA product abundance [2]: 0.29
CGACATGTCCCGCTTCTTTCATTAATCCGTTTTCAACTGTTTTGCTATATACATTTACCTTTTAAGAGGAGGAAT	–	0.247	–
ACAGACGAAGGAGCCGCAAAGTAGTTATTTAGGGATGAATAATCCCTCAATATAAATATCTCTCACTTATTTAAA	0.869	–	cleaved RNA product abundance [2]: 0.726
ACAGACGAAGGAGCCGCAAAGAAGTTATTAAGGGATGCATAATACCTCAATATAAATATCTCTCACTTATTTAAA	0.141	–	cleaved RNA product abundance [2]: 0.129

Sequence	cleaved RNA product abundance [1]	cleaved RNA product abundance [3]	further results
CGACATGTCCCGCTTCTTTCATTAATCTGTTAGCAACTGTTTTGCTATATAGATTTACCTTTTAAGAGGAGGAAT	–	0.587	–
ACAGACGAAGGAGCCGCAAAGAAGTTATTAAGGGATGATTAATCCCGCAATATAAATATCTCTCACTTATTTAAA	0.0868	–	–
CGACATGTCCCGCTTCTTTCATTAATCCGTTAACAACTATTTTGCTATATACATTTACCTTTTAAGAGGAGGAAT	–	0.275	–
CGACATGTCCCGCTTCTTTCATTAATCCGTTAGCAACTGTTTTGTTATATACATTTACCCTTTAAGAGGAGGAAT	–	0.388	–
CGACATGTCCCGCTTCTTTCATTATTCCGTTAGCAACTGTTTTGCTATATACATTCACCTTTTAAGAGGAGGAAT	–	1.3	–
ACAGACGAAGGAGCCGCAAAGAAGTTATTAAAGGATGAATAATCCCTCAATTTAAATATCTCTCACTTATTTAAA	0.0949	–	cleaved RNA product abundance [2]: 0.088
ACAGACGAAGGAGCCGCATAGAAGTTATTAAGGCATGAATAATCCCTCAATATAAATATCTCTCACTTATTTAAA	0.13	–	cleaved RNA product abundance [2]: 0.0988
CGACATGTCCCGCTTCTTTCATTAATCCTTTAGCAACAGTTTTGCTATATACATTTACCTTTTAAGAGGAGGAAT	–	0.115	–
ACAGACGAAGGAGCCGCAAAGAAGTTATTAAGGGATGCATAATCCCTCACTATAAATATCTCTCACTTATTTAAA	0.233	–	–
ACAGACGAAGGAGCCGCAAAGAAGTTATTAAGGGATGAATATTCCCTAAATATAAATATCTCTCACTTATTTAAA	0.462	–	–
CGACATGTCCCGCTTCTTTCATTAATCCGTTAGCAACTGTTTTTCTATATACATTTTACCTTTTAAGAGGAGGAA	–	0.435	–
CGACATGTCCCGCTTCTTTCATTATTCCGTTAGCAACAGTTTTGCTATATACATTTACCTTTTAAGAGGAGGAAT	–	1.12	–
CGACATGTCCCGCTTCTTTCATTAATCCGTTACCAACTGTTGTGCTATATACATTTACCTTTTAAGAGGAGGAAT	–	0.182	–
ACAGACGAAGGAGCCGCAAAGAAGTTATTAAGGCATGAATAAACCCTCAATATAAATATCTCTCACTTATTTAAA	0.136	–	–
ACAGACGAAGGAGCCGCAAAGAAGTTATTAAGGCATGAATAATCCCTCAATTTAAATATCTCTCACTTATTTAAA	0.0584	–	cleaved RNA product abundance [2]: 0.059
CGACATGTCCCGCTTCTTTCATTAATCCGTTAGCAACTGTATTGATATATACATTTACCTTTTAAGAGGAGGAAT	–	0.658	–
CGACATGTCCCGCTTCTTTCATTAATCCGTTAGCAACTGTTTTGCTATATACATATAACTTTTAAGAGGAGGAAT	–	1.73	–
ACAGACGAAGGAGCCGCAAAGAAGTTCTTAAGGGATGAATAATCCTTCAATATAAATATCTCTCACTTATTTAAA	–	–	cleaved RNA product abundance [2]: 0.139
CGACATGTCCCGCTTCTTTCATTAACCCGTTAGCAACTGTTTTGCTATATACATTTACTTTTTAAGAGGAGGAAT	–	1.04	–
ACAGACGAAGGAGCCGCAAAGAAGTTATTAAGAGATGAAAAATACCTCAATATAAATATCTCTCACTTATTTAAA	0.146	–	–
ACAGACGAAGGAGCCGCAAAGAAGTTATTAAGGGATGCATAATCTCTCAATATAAATATCTCTCACTTATTTAAA	0.725	–	–

Sequence	cleaved RNA product abundance [1]	cleaved RNA product abundance [3]	further results
ACAGACGAAGGAGCCGCAATGAAGTTATTTAGGGATGAATAATCCCTCAATATAAATATCTCTCACTTATTTAAA	0.738	–	–
ACAGACGAAGGAGCCGCAAAGAAGTAATTAAGGTATGAATAATCCCTCAATATAAATATCTCTCACTTATTTAAA	0.112	–	cleaved RNA product abundance [2]: 0.0974
ACAGACGAAGGAGCCGCAAAGAAGTAATTAAGGGATGAATAATCCCTCAGTATAAATATCTCTCACTTATTTAAA	0.0878	–	–
ACAGACGAAGGAGCCGCAAAGAAGTTATAAAGGGATGAATAATCCATCAATATAAATATCTCTCACTTATTTAAA	0.26	–	–
ACAGACGAAGGAGCCGCAAAGAAGTTATTAAGGGAAGAATAATCCCTCAATATAATTATCTCTCACTTATTTAAA	0.314	–	cleaved RNA product abundance [2]: 0.292
ACAGACGAAGGAGCCGCAAAGAAGTAATTAAGGGATGAATAATCCCTCAATATAAGTATCTCTCACTTATTTAAA	–	–	cleaved RNA product abundance [2]: 0.119
CGACATGTCCCGCTTCTTTCATTACTCCGTTAGCAACTGTTTGGCTATATACATTTACCTTTTAAGAGGAGGAAT	–	0.644	–
CGACATGTCCCGCTTCTTTCATTAATCCGTTATCAACTGTTTTGCTATATGCATTTACCTTTTAAGAGGAGGAAT	–	0.135	–
CGACATGTCCCGCTTCTTTCATTAATCCGTTAGCAAGTGTTTTGCTATATAAATTTACCTTTTAAGAGGAGGAAT	–	0.803	–
ACAGACGAAGGAGCCGCAAAGAAGTTATTAAGGGATGAATAATCCGTCAATAAAAATATCTCTCACTTATTTAAA	0.173	–	–
CGACATGTCCCGCTTCTTTCATTAATCCGTTCGCAACTGTTATGCTATATACATTTACCTTTTAAGAGGAGGAAT	–	0.349	–
ACAGACGAAGGAGCCGCAAAGAAGTTATTAAGGGATTAATAATCCCTCCATATAAATATCTCTCACTTATTTAAA	0.197	–	–
ACAGACGAAGGAGCCGCAAAGAAGGTATTAAGGGATGAATAATCCCTAAATATAAATATCTCTCACTTATTTAAA	0.966	–	cleaved RNA product abundance [2]: 0.994
ACAGACGAAGGAGCCGCAAAGAATGTATTAAGGGATGAATAATCCCTCAATATAAATATCTCTCACTTATTTAAA	0.695	–	–
CGACATGTCCCGCTTCTTTCATTAATCTGTTAACAACTGTTTTGCTATATACATTTACCTTTTAAGAGGAGGAAT	–	0.238	–
ACAGACGAAGGAGCCGCAAAGAAGTTATTAAAGCATTAATAATCCCTCAATATAAATATCTCTCACTTATTTAAA	0.134	–	–
ACAGACGAAGGAGCCGCAAAGAAGTTATTAAGGGATGACTAATCCCTCAAGATAAATATCTCTCACTTATTTAAA	0.247	–	–
ACAGACGAAGGAGCCGCAAAGAAGTTATTAAGGGATGAATAATGCCTCAAAATAAATATCTCTCACTTATTTAAA	0.173	–	–
ACAGACGAAGGAGCCGCAAAGAAGTTATTAAGTGAAGAATAATCCCTCAATATAAATATCTCTCACTTATTTAAA	0.0841	–	–

— the supplement of paper PMC11780869
